Biological target: T1, C-terminal STING (immobilized and purified) (Homo sapiens, UniProt Q86WV6 139-379)
T1 construct: only an unstated C-terminal part stood in the assay; also called immobilized C-terminal STING
Experiment: SPR (Biacore); C-terminal STING immobilized on the sensor chip
Protocol: For the surface plasmon resonance (SPR) analyses, BlAcore sensor chips (type CMS; Biacore, Uppsala, SE) were activated with a 1:1 mixture of 0.2 M N-ethyl-N′-(3-dimethylaminopropyl) carbodiimide and 0.05 M N-hydroxysuccinimide in water according to the manufacturer. C-terminal STING was immobilized. The SPR signal from immobilized C-terminal STING generated BlAcore resonance units (RU) that were equivalent to 66 fmol/mm2. The flow cells were regenerated with 20 μl of 1.5 M glycine-HCI (pH 3.0). The flow buffer was 10 mM HEPES, 150 mM NaCl, 1.5 mM CaCl2, and 1 mM EGTA (pH 7.4). The binding data was analyzed using the BIAevaluation program. The number of ligands bound per immobilized receptor was estimated by dividing the ratio RU ligand/mass ligand with RU receptor/mass receptor. The Kd for binding was estimated using a BIA evaluation program.

T1 sequence (Q86WV6 139-379 limits assumed): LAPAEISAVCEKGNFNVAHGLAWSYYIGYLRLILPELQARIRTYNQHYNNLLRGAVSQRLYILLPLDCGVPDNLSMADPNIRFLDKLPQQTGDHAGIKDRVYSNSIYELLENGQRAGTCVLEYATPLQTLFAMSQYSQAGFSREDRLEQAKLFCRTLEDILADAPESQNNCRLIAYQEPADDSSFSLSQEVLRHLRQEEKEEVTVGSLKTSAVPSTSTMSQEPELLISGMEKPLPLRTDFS

B1: PEP301, PB1 domain fragment peptide of human P62 (peptide)
peptide: FSFCCSPEPEAEAEAAAGPGGRKKRRQRRRPQ
notes: also called Sp62-301; PB1-domain peptide PEP301
Kd: 746 nM
